Earlier results, collected in PMC11053944.

How the values were obtained:
[1] = biological target: Sba1 (Saccharomyces cerevisiae) (UniProt P28707); experiment: SPR
[2] = biological target: Sba1 (Saccharomyces cerevisiae) (UniProt P28707); experiment: ITC

Sequence of Sba1 (Saccharomyces cerevisiae) (P28707 2-216): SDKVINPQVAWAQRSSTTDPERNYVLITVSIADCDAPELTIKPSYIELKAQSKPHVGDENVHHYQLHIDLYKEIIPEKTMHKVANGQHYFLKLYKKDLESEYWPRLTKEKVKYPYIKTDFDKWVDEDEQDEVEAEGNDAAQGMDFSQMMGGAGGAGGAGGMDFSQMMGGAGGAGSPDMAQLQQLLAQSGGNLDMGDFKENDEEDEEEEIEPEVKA

- Kd [1]: 540 nM
- Kd [2]: 1750 nM
Substance: HSP90 (from UniProt P02829)
